Data on 6 molecules can be found in patent publication US20170204176A1 (MacroGenics, published 2017).

Assay [1] has as its target T1, His-tagged cynomolgus monkey DR5 (cynomolgus monkey (Macaca fascicularis)).
T1 construct: also called His-tagged DR5
The assay is described as follows: Biacore (SPR); DR5 mAb 3×CD3 mAb 2 diabody with His-tagged cynomolgus monkey DR5. In general terms: Surface plasmon resonance follows binding to a sensor surface in real time, without labels.
Experimental: (§1) Bi-specific DR5×CD3 diabodies were incubated with His-tagged DR5 and the kinetics of binding was determined via Biacore analysis.

Assay [2] deals with T1, His-tagged cynomolgus monkey DR5. The assay is described as follows: Biacore (SPR); DR5 mAb 2×CD3 mAb 2 diabody with His-tagged cynomolgus monkey DR5.
Experimental: as §1
The target in assay [3] is T2, histidine tagged TRAIL (UniProt P50591 95-281, limits assumed).
T2 construct: also called TRAIL-His; TRAIL ligand; not shown: histidine tag
The assay is described as follows: ELISA; biotinylated DR5 mAb 1 on 1 µg/mL TRAIL-His coat. On the technique in general: An ELISA detects its analyte on a solid surface through an enzyme-linked reagent.

Another assay concerns the target human DR5 (human, UniProt O14763 56-210, limits assumed). Briefly: titration with fluorescence readout (y axis: Log MFI); the text does not describe the assay format.
Assay [4] addresses T1, His-tagged cynomolgus monkey DR5. The assay is described as follows: Biacore (SPR); DR5 mAb 4×CD3 mAb 2 diabody with His-tagged cynomolgus monkey DR5.
Experimental: as §1
Assay [5] addresses T2, histidine tagged TRAIL. Briefly: ELISA; biotinylated DR5 mAb 2 on 1 µg/mL TRAIL-His coat.
In another assay the target is T3, His-tagged human DR5 (human, UniProt O14763 56-210, limits assumed).
T3 construct: whole precursor entry named; also called His-tagged DR5; not shown: His tag
T3 sequence (O14763 other isoform, or with tags, fused parts or gaps limits assumed): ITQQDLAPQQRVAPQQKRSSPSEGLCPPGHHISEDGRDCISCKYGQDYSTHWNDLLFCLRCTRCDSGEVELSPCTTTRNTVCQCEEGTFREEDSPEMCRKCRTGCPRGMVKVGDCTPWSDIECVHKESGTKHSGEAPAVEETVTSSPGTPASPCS
Briefly: Biacore (SPR); DR5 mAb 1×CD3 mAb 2 diabody with His-tagged human DR5.

For assay [6], the target named is T1, His-tagged cynomolgus monkey DR5. Briefly: Biacore (SPR); DR5 mAb 1×CD3 mAb 2 diabody with His-tagged cynomolgus monkey DR5.
Experimental: as §1

human DR5, sequence (O14763 other isoform, or with tags, fused parts or gaps limits assumed): as above
Experimental for His-tagged human DR5: as §1

B1: DR5 mAb 3×CD3 mAb 2 diabody (bispecific antibody)
chain 1: SELTQDPAVSVALGQTVRITCSGDSLRSYYASWYQQKPGQAPVLVIYGANNRPSGIPDRFSGSSSGNTASLTITGAQAEDEADYYCNSADSSGNHVVFGGGTKLTVLGGGGSGGGGEVQLVESGGGLVQPGGSLRLSCAASGFTFSTYAMNWVRQAPGKGLEWVGRIRSKYNNYATYYADSVKGRFTISRDDSKNSLYLQMNSLKTEDTAVYYCVRHGNFGNSYVSWFAYWGQGTLVTVSSASTKGEVAACEKEVAALEKEVAALEKEVAALEK
chain 2: QAVVTQEPSLTVSPGGTVTLTCRSSTGAVTTSNYANWVQQKPGQAPRGLIGGTNKRAPWTPARFSGSLLGGKAALTITGAQAEDEADYYCALWYSNLWVFGGGTKLTVLGGGGSGGGGEVQLVQSGGGVERPGGSLRLSCAASGFTFDDYAMSWVRQAPGKGLEWVSGINWQGGSTGYADSVKGRVTISRDNAKNSLYLQMNSLRAEDTAVYYCAKILGAGRGWYFDYWGKGTTVTVSSASTKGKVAACKEKVAALKEKVAALKEKVAALKE
notes: Two-chain bi-specific DR5×CD3 diabody with the VL and VH of drozitumab (DR5 mAb 3); also called drozitumab variable domains
As a reminder, the Kd is the constant that tells how readily two partners part at equilibrium. In assay [1], B1 showed an equilibrium dissociation constant (Kd) of 13.3 nM.

B2: DR5 mAb 2×CD3 mAb 2 diabody (bispecific antibody)
chain 1: DIVMTQSHKFMSTSVGDRVSITCKASQDVNTAVAWYQQKPGQSPKLLIYWASTRHTGVPDRFTGSGSGTDYTLTIKSVQAEDLTLYYCQQHYITPWTFGGGTKLEIKGGGSGGGGEVQLVESGGGLVQPGGSLRLSCAASGFTFSTYAMNWVRQAPGKGLEWVGRIRSKYNNYATYYADSVKGRFTISRDDSKNSLYLQMNSLKTEDTAVYYCVRHGNFGNSYVSWFAYWGQGTLVTVSSASTKGEVAACEKEVAALEKEVAALEKEVAALEK
chain 2: QAVVTQEPSLTVSPGGTVTLTCRSSTGAVTTSNYANWVQQKPGQAPRGLIGGTNKRAPWTPARFSGSLLGGKAALTITGAQAEDEADYYCALWYSNLWVFGGGTKLTVLGGGGSGGGGKVQLQQSGAELVKPGASVKLSCKASGYTFTEYILHWVKQKSGQGLEWIGWFYPGNNNIKYNEKFKDKATLTADKSSSTVYMELSRLTSEDSAVYFCARHEQGPGYFDYWGQGTTLTVSSASTKGKVAACKEKVAALKEKVAALKEKVAALKE
notes: Two-chain bi-specific DR5×CD3 diabody
On to B2, for which, in assay [2], the Kd was determined as 0.42 nM.

B3: DR5 mAb 1 (antibody, V domains shown)
VH: EVKFLESGGGLVQPGGSLKLSCVASGFDFSRYWMSWVRQAPGKGLEWIGEINPDSNTINYTPSLKDKFIISRDNAKNTLYLQMTKVRSEDTALYYCTRRAYYGNPAWFAYWGQGTLVTVSS
VL: DIVLTQSPASLAVSLGQRATISCRASKSVSSSGYSYMHWYQQKPGQPPKVLIFLSSNLDSGVPARFSGSGSGTDFTLNIHPVEDGDAATYYCQHSRDLPPTFGGGTKLEIK
notes: Murine anti-human DR5 monoclonal antibody; also called anti-human DR5 monoclonal antibody DR5 mAb 1
The EC50 (read off the curve) is the midpoint of the concentration-response curve. As for B3, in the assay with histidine tagged TRAIL [3], the binding result is “no binding (tested: 2 µg/mL)”. Also, the concentration for a half-maximal effect (EC50 (read off the curve)) with human DR5 is ~1 nM.

B4: DR5 mAb 4×CD3 mAb 2 diabody (bispecific antibody)
chain 1: EIVLTQSPGTLSLSPGERATLSCRASQGISRSYLAWYQQKPGQAPSLLIYGASSRATGIPDRFSGSGSGTDFTLTISRLEPEDFAVYYCQQFGSSPWTFGQGTKVEIKGGGSGGGGEVQLVESGGGLVQPGGSLRLSCAASGFTFSTYAMNWVRQAPGKGLEWVGRIRSKYNNYATYYADSVKGRFTISRDDSKNSLYLQMNSLKTEDTAVYYCVRHGNFGNSYVSWFAYWGQGTLVTVSSASTKGEVAACEKEVAALEKEVAALEKEVAALEK
chain 2: QAVVTQEPSLTVSPGGTVTLTCRSSTGAVTTSNYANWVQQKPGQAPRGLIGGTNKRAPWTPARFSGSLLGGKAALTITGAQAEDEADYYCALWYSNLWVFGGGTKLTVLGGGGSGGGGQVQLQESGPGLVKPSQTLSLTCTVSGGSISSGDYFWSWIRQLPGKGLEWIGHIHNSGTTYYNPSLKSRVTISVDTSKKQFSLRLSSVTAADTAVYYCARDRGGDYYYGMDVWGQGTTVTVSSASTKGKVAACKEKVAALKEKVAALKEKVAALKE
notes: Two-chain bi-specific DR5×CD3 diabody with the VL and VH of conatumumab (DR5 mAb 4); also called conatumumab variable domains
In the case of B4, the Kd in assay [4] is 16.4 nM.

B5: DR5 mAb 2 (antibody, V domains shown)
VH: KVQLQQSGAELVKPGASVKLSCKASGYTFTEYILHWVKQKSGQGLEWIGWFYPGNNNIKYNEKFKDKATLTADKSSSTVYMELSRLTSEDSAVYFCARHEQGPGYFDYWGQGTTLTVSS
VL: DIVMTQSHKFMSTSVGDRVSITCKASQDVNTAVAWYQQKPGQSPKLLIYWASTRHTGVPDRFTGSGSGTDYTLTIKSVQAEDLTLYYCQQHYITPWTFGGGTKLEIK
notes: Murine anti-human DR5 monoclonal antibody; also called anti-human DR5 monoclonal antibody DR5 mAb 2; DR mAb 2
For the molecule B5, the binding result with histidine tagged TRAIL [5] is “no binding (tested: 2 µg/mL)”.

B6: DR5 mAb 1×CD3 mAb 2 diabody (bispecific antibody)
chain 1: DIVLTQSPASLAVSLGQRATISCRASKSVSSSGYSYMHWYQQKPGQPPKVLIFLSSNLDSGVPARFSGSGSGTDFTLNIHPVEDGDAATYYCQHSRDLPPTFGGGTKLEIKGGGSGGGGEVQLVESGGGLVQPGGSLRLSCAASGFTFSTYAMNWVRQAPGKGLEWVGRIRSKYNNYATYYADSVKGRFTISRDDSKNSLYLQMNSLKTEDTAVYYCVRHGNFGNSYVSWFAYWGQGTLVTVSSASTKGEVAACEKEVAALEKEVAALEKEVAALEK
chain 2: QAVVTQEPSLTVSPGGTVTLTCRSSTGAVTTSNYANWVQQKPGQAPRGLIGGTNKRAPWTPARFSGSLLGGKAALTITGAQAEDEADYYCALWYSNLWVFGGGTKLTVLGGGGSGGGGEVKFLESGGGLVQPGGSLKLSCVASGFDFSRYWMSWVRQAPGKGLEWIGEINPDSNTINYTPSLKDKFIISRDNAKNTLYLQMTKVRSEDTALYYCTRRAYYGNPAWFAYWGQGTLVTVSAASTKGKVAACKEKVAALKEKVAALKEKVAALKE
notes: as for B2
As for B6, the values for the Kd (with His-tagged human DR5; in assay [6]) were 0.14 nM and 32.5 nM, respectively.
